Here are results for one protein from paper PMC3999857, “Periodic DNA patrolling underlies diverse functions of Pif1 on R-loops and G-rich DNA” (eLife, 2014).

Substrate in the data set: Nc1ncnc2c1ncn2[C@@H]1O[C@H](COP(=O)(O)OP(=O)(O)OP(=O)(O)O)[C@@H](O)[C@H]1O
Briefly: purified protein. It counts as biochemical, Saccharomyces cerevisiae. The conditions noted are these: 3′-(dT)40 partial duplex DNA, monomer condition (10 nM Pif1 then wash), 5 mM MgCl2, 60 mM KCl, pH 7.5, 22 °C.

In general, Km refers to the substrate concentration at which the rate is half of its maximum.

B1: Pif1 (Saccharomyces cerevisiae S288C) (protein)
chain: RSNNFIQAQLKHPSILSKEDLDLLSDSDDWEEPDCIQLETEKQEKKIITDIHKEDPVDKKPMRDKNVMNFINKDSPLSWNDMFKPSIIQPPQLISENSFDQSSQKKSRSTGFKNPLRPALKKESSFDELQNNSISQERSLEMINENEKKKMQFGEKIAVLTQRPSFTELQNDQDDSNLNPHNGVKVKIPICLSKEQESIIKLAENGHNIFYTGSAGTGKSILLREMIKVLKGIYGRENVAVTASTGLAACNIGGITIHSFAGIGLGKGDADKLYKKVRRSRKHLRRWENIGALVVDEISMLDAELLDKLDFIARKIRKNHQPFGGIQLIFCGDFFQLPPVSKDPNRPTKFAFESKAWKEGVKMTIMLQKVFRQRGDVKFIDMLNRMRLGNIDDETEREFKKLSRPLPDDEIIPAELYSTRMEVERANNSRLSKLPGQVHIFNAIDGGALEDEELKERLLQNFLAPKELHLKVGAQVMMVKNLDATLVNGSLGKVIEFMDPETYFCYEALTNDPSMPPEKLETWAENPSKLKAAMEREQSDGEESAVASRKSSVKEGFAKSDIGEPVSPLDSSVFDFMKRVKTDDEVVLENIKRKEQLMQTIHQNSAGKRRLPLVRFKASDMSTRMVLVEPEDWAIEDENEKPLVSRVQLPLMLAWSLSIHKSQGQTLPKVKVDLRRVFEKGQAYVALSRAVSREGLQVLNFDRTRIKAHQKVIDFYLTLSSAESAYKQLEADEQVKKRKLDYAPGPKYKAKSKSKSNSPAPISATTQSNNGIAAMLQRHSRKRFQLKKESNSNQVHSLVSDEPRGQDTEDHILE
notes: purified His6-tagged Pif1, purification as in Boule et al. 2005; monomer
As for B1, the Km amounted to 110 ± 17 µM.
